This note sets out measurements from publication PMC4417206.

This series concerns the target T1, N-ht-CRP (cAMP receptor protein) (Shewanella oneidensis MR-1) (UniProt Q8EJ49).
T1 sequence: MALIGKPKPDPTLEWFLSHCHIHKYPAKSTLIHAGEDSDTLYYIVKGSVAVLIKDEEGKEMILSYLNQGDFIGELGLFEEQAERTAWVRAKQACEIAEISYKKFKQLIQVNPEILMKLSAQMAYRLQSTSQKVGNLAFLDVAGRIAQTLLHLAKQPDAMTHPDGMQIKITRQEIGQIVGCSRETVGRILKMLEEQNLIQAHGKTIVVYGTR
The series can be described thus: EMSA. Particulars: 10 mM Tris-HCl pH 7.6, 0.5 mM EDTA, 100 mM KCl, 50 ug/mL BSA, 50 ug/mL poly(dI-dC), 50 uM cAMP, 10% glycerol, 2 nM probe, 0-200 ng CRP in 20 uL, on ice 30 min ….

“CCCGCTTAAAGTGACTGATAAATACCAATGACTTAGTTAGCCTTACAGGTGGGATCTAATTCC (double strand) [PBomcA2]”: the binding result is given as “no binding”. In the case of “CCTTGGGGAATTCTATTTCCAGCATCCACTTAAGTCGCTTCTAGTGATCAAATACACAGACATAGAATCTGTTGGCGCTAGAGCATAGCGGTTAAGCAATGCCAAACCTATGCAGGGAAAA (double strand) [PBmtrC2]” it was “no binding”; in that of “TCCACCTCACTATCTGTTGTTTTTTTGCTCTCAATTTGTTTTTCCCTTGTGGTTTAACTACCTCTTTAGAAATAGAAAGATCCAAGTCACACATTAGCAAAGGCTTAGAAGATTTTAACGGCATGTTGGGTTAGCCTTTCCTTGGGGAATTCTATTTCCAGCATCCACTTAAGTCGCTTCTAGTGATCAAATACACAGACATAGAATCTGTTGGCGCTAGAGCATAGCGGTTAAGCAATGCCAAACCTATGCAGGGAAAA (double strand) [PBmtrC1]”, “binds more weakly”.
